Source: patent publication US20220064329A1 (Novo Nordisk, published 2022)

T1: recombinant human activated Factor VII (FVIIa) (human, UniProt P08709 61-212; P08709 213-466, ten glutamate residues of the Gla domain may be gamma-carboxylated)
T1 construct: chains tethered by a disulfide bond; also called Factor VIIa; rFVIIa
T1 sequence 1: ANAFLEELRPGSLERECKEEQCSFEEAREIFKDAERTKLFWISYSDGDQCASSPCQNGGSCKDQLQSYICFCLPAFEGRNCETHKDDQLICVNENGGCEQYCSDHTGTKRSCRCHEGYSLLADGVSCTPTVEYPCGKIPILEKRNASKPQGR
T1 sequence 2: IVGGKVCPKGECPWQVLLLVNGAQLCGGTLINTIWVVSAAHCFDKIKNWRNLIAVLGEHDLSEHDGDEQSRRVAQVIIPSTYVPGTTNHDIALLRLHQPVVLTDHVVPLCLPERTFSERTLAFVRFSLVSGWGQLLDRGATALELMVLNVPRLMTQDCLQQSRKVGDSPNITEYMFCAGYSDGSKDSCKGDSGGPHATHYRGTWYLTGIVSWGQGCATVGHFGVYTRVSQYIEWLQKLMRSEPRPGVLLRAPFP

B1: VH SEQ ID NO 618 / VL SEQ ID NO 454 (antibody, IgG4, V domains shown)
VH: QVQLQESGPGLVKPSQTLSLTCTVSGYSISSDSAWSWIRQFPGKGLEWIGYIQYSGSTNYNPSLKSRVTISRDTSKNQFSLKLSSVTAADTAVYYCARSVNYYGNSFAVGPWGQGTLVTVSS
VL: EIVLTQSPATLSLSPGERATLSCRASQGVSDYLHWYQQKPGEAPRLLIKYASQPATGIPARFSGSGSGTDFTLTISSLEPEDFAVYYCQNGHSFPLTFGQGTKLEIK
notes: humanized 11F2; IgG4 S228P/kappa
B2: VH SEQ ID NO 618 / VL SEQ ID NO 462 (antibody, IgG4, V domains shown)
VH: QVQLQESGPGLVKPSQTLSLTCTVSGYSISSDSAWSWIRQFPGKGLEWIGYIQYSGSTNYNPSLKSRVTISRDTSKNQFSLKLSSVTAADTAVYYCARSVNYYGNSFAVGPWGQGTLVTVSS
VL: EIVLTQSPATLSLSPGERATLSCRASQGVSDYLHWYQQKPGQAPRLLIKYASQPATGIPARFSGSGSGTDFTLTISSLEPEDFAVYYCQNGHSFPLTFGAGTKLEIK
notes: as for B1
B3: VH SEQ ID NO 618 / VL SEQ ID NO 470 (antibody, IgG4, V domains shown)
VH: QVQLQESGPGLVKPSQTLSLTCTVSGYSISSDSAWSWIRQFPGKGLEWIGYIQYSGSTNYNPSLKSRVTISRDTSKNQFSLKLSSVTAADTAVYYCARSVNYYGNSFAVGPWGQGTLVTVSS
VL: EIVLTQSPATLSLSPGERATLSCRASQGVSDYLHWYQQKPGQAPRLLIKYASQPATGIPARFSGSGSGTDFTLTISSLEPEDFAVYYCQNGHSFPLTFGQGTKLEIK
notes: as for B1
B4: VH SEQ ID NO 618 / VL SEQ ID NO 478 (antibody, IgG4, V domains shown)
VH: QVQLQESGPGLVKPSQTLSLTCTVSGYSISSDSAWSWIRQFPGKGLEWIGYIQYSGSTNYNPSLKSRVTISRDTSKNQFSLKLSSVTAADTAVYYCARSVNYYGNSFAVGPWGQGTLVTVSS
VL: EIVLTQSPATLSLSPGERATLSCRASQGVSDYLHWYQQKPGQAPRLLIKYASQPATGIPARFSGSGSGTDFTLTISSLEPEDFAVYYCQQGHSFPLTFGQGTKLEIK
notes: as for B1
B5: VH SEQ ID NO 618 / VL SEQ ID NO 486 (antibody, IgG4, V domains shown)
VH: QVQLQESGPGLVKPSQTLSLTCTVSGYSISSDSAWSWIRQFPGKGLEWIGYIQYSGSTNYNPSLKSRVTISRDTSKNQFSLKLSSVTAADTAVYYCARSVNYYGNSFAVGPWGQGTLVTVSS
VL: EIVLTQSPATLSLSPGERATLSCRASQGVSDYLHWYQQKPGQAPRLLIKYASQPATGIPARFSGSGSGTDFTLTISSLEPEDFGVYYCQNGHSFPLTFGQGTKLEIK
notes: as for B1
B6: VH SEQ ID NO 618 / VL SEQ ID NO 494 (antibody, IgG4, V domains shown)
VH: QVQLQESGPGLVKPSQTLSLTCTVSGYSISSDSAWSWIRQFPGKGLEWIGYIQYSGSTNYNPSLKSRVTISRDTSKNQFSLKLSSVTAADTAVYYCARSVNYYGNSFAVGPWGQGTLVTVSS
VL: EIVLTQSPATLSLSPGERATLSCRASQGVSDYLHWYQQKPGQAPRLLIKYASQPATGIPARFSGSGSGTDFTLTISSLEPEDVAVYYCQNGHSFPLTFGQGTKLEIK
notes: as for B1
B7: VH SEQ ID NO 618 / VL SEQ ID NO 502 (antibody, IgG4, V domains shown)
VH: QVQLQESGPGLVKPSQTLSLTCTVSGYSISSDSAWSWIRQFPGKGLEWIGYIQYSGSTNYNPSLKSRVTISRDTSKNQFSLKLSSVTAADTAVYYCARSVNYYGNSFAVGPWGQGTLVTVSS
VL: EIVLTQSPATLSLSPGERATLSCRASQGVSDYLHWYQQKPGQAPRLLIKYTSQPATGIPARFSGSGSGTDFTLTISSLEPEDFAVYYCQNGHSFPLTFGQGTKLEIK
notes: as for B1
B8: VH SEQ ID NO 626 / VL SEQ ID NO 310 (antibody, IgG4, V domains shown)
VH: QVQLQESGPGLVKPSQTLSLTCTVSGYSISSDSAWSWIRQPPGKGLEWIGYIQYSGSTNYNPSLKSRVTISRDTSKNQFSLKLSSVTAADTAVYYCARSVNYYGNSFAVGPWGQGTLVTVSS
VL: EIVLTQSPATLSLSPGERATLSCRASQGISDYLAWYQQKPGQAPRLLIKYASQPATGIPARFSGSGSGTDFTLTISSLEPEDFAVYYCQNGHSFPLTFGQGTKLEIK
notes: as for B1
B9: VH SEQ ID NO 626 / VL SEQ ID NO 318 (antibody, IgG4, V domains shown)
VH: QVQLQESGPGLVKPSQTLSLTCTVSGYSISSDSAWSWIRQPPGKGLEWIGYIQYSGSTNYNPSLKSRVTISRDTSKNQFSLKLSSVTAADTAVYYCARSVNYYGNSFAVGPWGQGTLVTVSS
VL: EIVLTQSPATLSLSPGERATLSCRASQGISDYLHWYQQKPGEAPRLLIKYTSQPATGIPARFSGSGSGTDFTLTISSLEPEDFAVYYCQNGHSFPLTFGQGTKLEIK
notes: as for B1
B10: VH SEQ ID NO 626 / VL SEQ ID NO 326 (antibody, IgG4, V domains shown)
VH: QVQLQESGPGLVKPSQTLSLTCTVSGYSISSDSAWSWIRQPPGKGLEWIGYIQYSGSTNYNPSLKSRVTISRDTSKNQFSLKLSSVTAADTAVYYCARSVNYYGNSFAVGPWGQGTLVTVSS
VL: EIVLTQSPATLSLSPGERATLSCRASQGISDYLHWYQQKPGEAPRLLIKYTSQPATGIPARFSGSGSGTDFTLTISSLEPEDFGVYYCQNGHSFPLTFGAGTKLELK
notes: as for B1
B11: VH SEQ ID NO 626 / VL SEQ ID NO 334 (antibody, IgG4, V domains shown)
VH: QVQLQESGPGLVKPSQTLSLTCTVSGYSISSDSAWSWIRQPPGKGLEWIGYIQYSGSTNYNPSLKSRVTISRDTSKNQFSLKLSSVTAADTAVYYCARSVNYYGNSFAVGPWGQGTLVTVSS
VL: EIVLTQSPATLSLSPGERATLSCRASQGISDYLHWYQQKPGQAPRLLIKYASQPATGIPARFSGSGSGTDFTLTISSLEPEDFAVYYCQNGHSFPLTFGQGTKLEIK
notes: as for B1
B12: VH SEQ ID NO 626 / VL SEQ ID NO 342 (antibody, IgG4, V domains shown)
VH: QVQLQESGPGLVKPSQTLSLTCTVSGYSISSDSAWSWIRQPPGKGLEWIGYIQYSGSTNYNPSLKSRVTISRDTSKNQFSLKLSSVTAADTAVYYCARSVNYYGNSFAVGPWGQGTLVTVSS
VL: EIVLTQSPATLSLSPGERATLSCRASQGISDYLHWYQQKPGQAPRLLIKYTSQPATGIPARFSGSGSGRDFTLTISSLEPEDFAVYYCQNGHSFPLTFGAGTKLELK
notes: as for B1
B13: VH SEQ ID NO 626 / VL SEQ ID NO 350 (antibody, IgG4, V domains shown)
VH: QVQLQESGPGLVKPSQTLSLTCTVSGYSISSDSAWSWIRQPPGKGLEWIGYIQYSGSTNYNPSLKSRVTISRDTSKNQFSLKLSSVTAADTAVYYCARSVNYYGNSFAVGPWGQGTLVTVSS
VL: EIVLTQSPATLSLSPGERATLSCRASQGISDYLHWYQQKPGQAPRLLIKYTSQPATGIPARFSGSGSGTDFTLTISSLEPEDFAVYYCQNGHSFPLTFGAGTKLELK
notes: as for B1
B14: VH SEQ ID NO 626 / VL SEQ ID NO 358 (antibody, IgG4, V domains shown)
VH: QVQLQESGPGLVKPSQTLSLTCTVSGYSISSDSAWSWIRQPPGKGLEWIGYIQYSGSTNYNPSLKSRVTISRDTSKNQFSLKLSSVTAADTAVYYCARSVNYYGNSFAVGPWGQGTLVTVSS
VL: EIVLTQSPATLSLSPGERATLSCRASQGISDYLHWYQQKPGQAPRLLIKYTSQPATGIPARFSGSGSGTDFTLTISSLEPEDFAVYYCQNGHSFPLTFGQGTKLEIK
notes: as for B1
B15: VH SEQ ID NO 626 / VL SEQ ID NO 366 (antibody, IgG4, V domains shown)
VH: QVQLQESGPGLVKPSQTLSLTCTVSGYSISSDSAWSWIRQPPGKGLEWIGYIQYSGSTNYNPSLKSRVTISRDTSKNQFSLKLSSVTAADTAVYYCARSVNYYGNSFAVGPWGQGTLVTVSS
VL: EIVLTQSPATLSLSPGERATLSCRASQGLSDYLAWYQQKPGEAPRLLIKYASQPATGIPARFSGSGSGTDFTLTISSLEPEDFAVYYCQNGHSFPLTFGQGTKLEIK
notes: as for B1
B16: VH SEQ ID NO 626 / VL SEQ ID NO 382 (antibody, IgG4, V domains shown)
VH: QVQLQESGPGLVKPSQTLSLTCTVSGYSISSDSAWSWIRQPPGKGLEWIGYIQYSGSTNYNPSLKSRVTISRDTSKNQFSLKLSSVTAADTAVYYCARSVNYYGNSFAVGPWGQGTLVTVSS
VL: EIVLTQSPATLSLSPGERATLSCRASQGLSDYLHWYQQKPGEAPRLLIKYASQPATGIPARFSGSGSGTDFTLTISSLEPEDFAVYYCQNGHSFPLTFGQGTKLEIK
notes: as for B1
B17: VH SEQ ID NO 626 / VL SEQ ID NO 390 (antibody, IgG4, V domains shown)
VH: QVQLQESGPGLVKPSQTLSLTCTVSGYSISSDSAWSWIRQPPGKGLEWIGYIQYSGSTNYNPSLKSRVTISRDTSKNQFSLKLSSVTAADTAVYYCARSVNYYGNSFAVGPWGQGTLVTVSS
VL: EIVLTQSPATLSLSPGERATLSCRASQGVSDYLAWYQQKPGEAPRLLIKYASQPATGIPARFSGSGSGTDFTLTISSLEPEDFAVYYCQNGHSFPLTFGQGTKLEIK
notes: as for B1
B18: VH SEQ ID NO 626 / VL SEQ ID NO 398 (antibody, IgG4, V domains shown)
VH: QVQLQESGPGLVKPSQTLSLTCTVSGYSISSDSAWSWIRQPPGKGLEWIGYIQYSGSTNYNPSLKSRVTISRDTSKNQFSLKLSSVTAADTAVYYCARSVNYYGNSFAVGPWGQGTLVTVSS
VL: EIVLTQSPATLSLSPGERATLSCRASQGVSDYLAWYQQKPGEAPRLLIKYTSQPATGIPARFSGSGSGTDFTLTISSLEPEDFAVYYCQNGHSFPLTFGQGTKLEIK
notes: as for B1
B19: VH SEQ ID NO 626 / VL SEQ ID NO 406 (antibody, IgG4, V domains shown)
VH: QVQLQESGPGLVKPSQTLSLTCTVSGYSISSDSAWSWIRQPPGKGLEWIGYIQYSGSTNYNPSLKSRVTISRDTSKNQFSLKLSSVTAADTAVYYCARSVNYYGNSFAVGPWGQGTLVTVSS
VL: EIVLTQSPATLSLSPGERATLSCRASQGVSDYLAWYQQKPGQAPRLLIKYASQPATGIPARFSGSGSGTDFTLTISSLEPEDFAVYYCQNGHSFPLTFGAGTKLEIK
notes: as for B1
B20: VH SEQ ID NO 626 / VL SEQ ID NO 414 (antibody, IgG4, V domains shown)
VH: QVQLQESGPGLVKPSQTLSLTCTVSGYSISSDSAWSWIRQPPGKGLEWIGYIQYSGSTNYNPSLKSRVTISRDTSKNQFSLKLSSVTAADTAVYYCARSVNYYGNSFAVGPWGQGTLVTVSS
VL: EIVLTQSPATLSLSPGERATLSCRASQGVSDYLAWYQQKPGQAPRLLIKYASQPATGIPARFSGSGSGTDFTLTISSLEPEDFAVYYCQNGHSFPLTFGQGTKLEIK
notes: as for B1

Target: T1, recombinant human activated Factor VII …
Assay: BLI (Fortebio)

| Binder | Kd [nM] |
| --- | --- |
| B1 | 1.3 |
| B2 | 1.4 |
| B3 | 1.2 |
| B4 | 2 |
| B5 | 1.2 |
| B6 | 1.4 |
| B7 | 1.2 |
| B8 | 9.2 |
| B9 | 0.71 |
| B10 | 0.79 |
| B11 | 0.95 |
| B12 | 0.85 |
| B13 | 0.65 |
| B14 | 0.72 |
| B15 | 87 |
| B16 | 1.1 |
| B17 | 27 |
| B18 | 820 |
| B19 | 87 |
| B20 | 18 |
